Reference: US20140315811A1, “OPHTHALMIC PREPARATIONS BASED ON PACAP (PITUITARY ADENYLATE CYCLASE ACTIVATING POLYPEPTIDE) WHICH RESTORE THE NORMAL VISUAL FUNCTION IN EARLY GLAUCOMA” (HMFRA HUNGARY LIMITED LIABILITY COMPANY, priority 2011, published 2014)

Legend:
[1] = test system: DBA/2J mouse (retinal ganglion cells / inner nuclear layer response); assay: Pattern electroretinogram (P-ERG) after repeated topical application in murine spontaneous glaucoma model; type: in vivo
Excerpt: The PACAP receptor, called PAC1, is known to be expressed in the ganglion cells (Seki et al. 1997; 2000; D'Agata and Cavallaro 1998; Hannibal and Fahrenkrug 2004; Kubrusly et al. 2005). The activity of PACAP was verified in the most common experimental model of spontaneous glaucoma, a double mutant mouse called DBA/2J (John et al., 1998; Chang et al., 1999). The DBA/2J mouse presents homozygous mutations of two separate genes; the first is […] (Tyrpl−/−) coding for a melanosome protein, and the second is a membrane glycoprotein (Gpnmb−/−); pigment granules accumulate in the trabecular meshwork, similar to the form of pigmentary glaucoma, with consequent trabecular degeneration, atrophy of the iris and progressive impairment of the outflow of aqueous humor, which leads to an increase in IOP.
This mouse is characterised by a progressive increase in IOP, with progressive loss of the retinal response to structured visual stimuli (which may be lattices formed by pale strips alternating with dark strips, or chess pieces, with different contrasts and sizes) which depends on the inner nuclear layer/ganglion cells; in humans and in the animal model, this retinal response is called the pattern electroretinogram (P-ERG; Domenici et al.,1991; Ventura and Porciatti, 2006; Falsini et al., 2008). The dysfunction of the ganglion cells is followed at a late stage by degeneration of the ganglion cells, with a reduction in their density and progressive atrophy of the optic nerve (Ventura et al., 2006; Buckingham et al., 2008). […] At the age of 11 months the IOP rises further; a progression of the disorder similar to that which takes place in human patients can therefore be deduced. […]

[2] = test system: DBA/2J mouse (photoreceptors and outer nuclear layer response to light); assay: Flash ERG after repeated topical application in murine spontaneous glaucoma model; type: in vivo; conditions: PACAP 50 μM in saline, two weeks, one treatment every 48 h
Excerpt: The other type of electroretinogram, flash ERG, which measures the response of the photoreceptors and the outer nuclear layer to light, appears wholly intact in glaucoma, further supporting the theory that this is a type of disorder affecting the inner nuclear layer, namely the ganglion cells, at least at the early stage.

[3] = test system: cAMP levels in the retina; assay: Determination of cAMP levels in the retina after topical application of PACAP 38 (Cyclic AMP EIA kit, retinal homogenate); type: in vivo, mice (C57BL-6J); conditions: topical application into conjunctival sac, PACAP 50 μM (0.226 μg/μl) in saline (0.9% NaCl) and acetic acid (5%); 6 hours after application; Student's t-test p<0.05
Method: • The preparation Based on Saline Solution (0.9% NaCl) Containing PACAP 38 was Used
The test was conducted on mice (C57BL-6J, Harlan, Italy); PACAP 38 was applied topically, instilled into the conjunctival sac of one eye, while the other eye, used as control, was treated with the saline solution (“placebo”) only. • Determination of cAMP Levels in the Retina
The animals were sacrificed 6 hours after the topical application, when deep anaesthesia had been induced by an intraperitoneal urethane injection (20%). The eye was then removed, and the cAMP level measured in the retinal homogenate of the eye treated with PACAP and of the other eye treated with saline only (control eye). The measurements were performed by cyclic AMP assay using the Cyclic AMP EIA KIT ([…]). The results shown in the chart in FIG. 1 were obtained with a topical application of PACAP (50 μM; 0.226 μg/μl) in saline solution (0.9% NaCl) and acetic acid (5%), and are expressed as relative values (%) compared with the control eye.

Pituitary Adenylate Cyclase Activating Polypeptide [PACAP]
Effectiveness on P-ERG across the three concentrations tested ([1]; 500 nM (0.0022 μg/μl), 1 μM (0.0045 μg/μl), 50 μM (0.226 μg/μl), topical, every 48 hours for two weeks, 8-month-old mice): only the highest concentration (50 μM, 0.226 μg/μl) proved effective | Effect on alteration of P-ERG (treated eye vs control eye) ([1]; PACAP 50 μM (0.226 μg/μl) in saline, topical, one application every 48 hours for 2 weeks between 8 and 8.5 months of age, p<0.05): prevented the alteration of P-ERG | Minimal effective concentration able to exert protective effects on the ganglion cell function ([1]; repeated topical treatment, DBA/2J mouse, early stage glaucoma): 0.226 µg/µL | Flash ERG of the treated eye (response of photoreceptors and outer nuclear layer to light) [2]: normal flash ERG | cAMP level in retinal homogenate, treated eye compared with control eye [3]: significantly higher
